Measurements: paper PMC7774594, “Functional Characterization of Primordial Protein Repair Enzyme M38 Metallo-Peptidase From Fervidobacterium islandicum AW-1” (Frontiers in Molecular Biosciences, 2020)
Each block holds one molecule with its values, some of them ahead of it.

What was measured:
[1] = biological target: M38 β-aspartyl peptidase from Fervidobacterium islandicum AW-1 (FiBAP) (Fervidobacterium islandicum AW-1); assay: SEC; Superdex 200 10/300 GL, 25 mM Tris-HCl pH 7.5, 150 mM NaCl; calibrated with blue dextran, thyroglobulin, ferritin, aldolase, conalbumin, ovalbumin; apparent Mr 318,000 against 42,000 by SDS-PAGE; octamer
[2] = biological target: M38 β-aspartyl peptidase from Fervidobacterium islandicum AW-1 (FiBAP) (Fervidobacterium islandicum AW-1); assay: crystal structure; hanging drop vapor diffusion at 20°C; ligand-free (I422, one subunit in the asymmetric unit, 2.6 Å) and with Cbz-β-Asp-Leu (P22(1)2, four subunits, 2.7 Å); octamer (tetramer of dimers) from symmetry-related molecule analysis
[3] = biological target: T1, FiBAP (M38 β-aspartyl peptidase from Fervidobacterium islandicum AW-1) (Fervidobacterium islandicum, UniProt A0AAI8CML9); assay: enzyme activity inhibition (data not shown); assay type: biochemical; conditions: substrate analog inhibitor, conditions not given
T1 construct: gene iadA; full length (M1-E386), 6xHis tag (N-terminal per methods with pET-28a, C-terminal per results), E. coli BL21(DE3); 42 kDa monomer, 318 kDa octamer (tetramer of dimers); binuclear Zn
T1 sequence (A0AAI8CML9 1-387): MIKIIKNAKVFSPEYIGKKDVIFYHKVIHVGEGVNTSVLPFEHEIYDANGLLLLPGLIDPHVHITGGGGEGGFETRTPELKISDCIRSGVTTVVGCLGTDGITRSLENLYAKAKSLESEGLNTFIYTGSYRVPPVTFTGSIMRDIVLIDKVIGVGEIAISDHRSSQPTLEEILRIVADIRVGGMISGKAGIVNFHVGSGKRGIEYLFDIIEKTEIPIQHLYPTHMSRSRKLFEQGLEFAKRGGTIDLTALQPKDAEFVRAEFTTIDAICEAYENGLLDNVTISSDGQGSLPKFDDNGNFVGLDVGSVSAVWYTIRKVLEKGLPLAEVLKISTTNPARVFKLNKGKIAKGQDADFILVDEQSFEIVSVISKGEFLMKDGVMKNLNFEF

[4] = biological target: T1, FiBAP (M38 β-aspartyl peptidase from Fervidobacterium islandicum AW-1); assay: X-ray crystal structure, […] Å; assay type: binding; conditions: co-crystallised with Cbz-β-DL, but only the β-DL moiety has density; wild type; binuclear Zn active site; pH about 5
[5] = substrate: CC(C)C[C@H](NC(=O)C[C@H](N)C(=O)O)C(=O)O; assay: ninhydrin assay of free amino acids, Michaelis-Menten fit; assay type: biochemical, Fervidobacterium islandicum; conditions: 50 mM HEPES pH 8.0, 1 mM CoCl2, 80°C, 10 min, 1–32 mM substrate
Description: ninhydrin assay of free amino acids, Michaelis-Menten fit on FiBAP ([…] β-aspartyl peptidase from Fervidobacterium islandicum AW-1) | steady-state kinetics analysis of FiBAP with β-DL as substrate, yielding Km and Vmax values

- stoichiometry N [1]: 8
- stoichiometry N [2]: 8
Molecule: M38 β-aspartyl peptidase from Fervidobacterium islandicum AW-1 (FiBAP) (enzyme)

Molecule: CC(C)C[C@H](NC(=O)C[C@H](NC(=O)OCc1ccccc1)C(=O)O)C(=O)O [N-carbobenzoxy-β-Asp-Leu]
- enzyme activity inhibition (data not shown) [3]: our substrate analog (Cbz-β-DL) containing Cbz inhibited enzyme activity in our enzyme assays

Molecule: CC(C)C[C@H](NC(=O)C[C@H](N)C(=O)O)C(=O)O [β-Asp-Leu]
- X-ray crystal structure, 2.7 Å [4]: included distinct electron density only for the β-DL moiety lacking carbamazepine (Cbz)

B1: FiBAP (M38 β-aspartyl peptidase from Fervidobacterium islandicum AW-1) (Fervidobacterium islandicum) (protein)
chain: MIKIIKNAKVFSPEYIGKKDVIFYHKVIHVGEGVNTSVLPFEHEIYDANGLLLLPGLIDPHVHITGGGGEGGFETRTPELKISDCIRSGVTTVVGCLGTDGITRSLENLYAKAKSLESEGLNTFIYTGSYRVPPVTFTGSIMRDIVLIDKVIGVGEIAISDHRSSQPTLEEILRIVADIRVGGMISGKAGIVNFHVGSGKRGIEYLFDIIEKTEIPIQHLYPTHMSRSRKLFEQGLEFAKRGGTIDLTALQPKDAEFVRAEFTTIDAICEAYENGLLDNVTISSDGQGSLPKFDDNGNFVGLDVGSVSAVWYTIRKVLEKGLPLAEVLKISTTNPARVFKLNKGKIAKGQDADFILVDEQSFEIVSVISKGEFLMKDGVMKNLNFEF
notes: full length (M1-E386), 6xHis tag (N-terminal per methods with pET-28a, C-terminal per results), E. coli BL21(DE3); 42 kDa monomer, 318 kDa octamer (tetramer of dimers); binuclear Zn
- Km [5]: 5.23 ± 1.59 mg/mL
